The numbers were not newly measured in article PMC8199771, which cites them from elsewhere.

Broadly, the Kd is the constant that tells how readily two partners part at equilibrium.

For series [1], the target named is muscle nAChR alpha1-gamma and alpha1-delta interfaces (Mus musculus) (UniProt P04756).
The target in series [2] is muscle nAChR alpha1-epsilon interface (Mus musculus) (UniProt P04756).
Series [3] deals with muscle nAChR (Homo sapiens) (UniProt P02708).
Series [4] has as its target muscle nAChR alpha-delta interface (Mus musculus) (UniProt P04756).
Series [5] has as its target muscle nAChR alpha-epsilon interface (Mus musculus) (UniProt P04756).

On to NmmI (from UniProt P01431), for which the Kd is 0.1 nM in series [1] and 100 nM in series [2].

As to Waglerin-1 (from UniProt P24335), the Kd in series [3] is 692 nM; in series [4], 20200 nM; in series [5], 9.8 nM.
